Results published in publication doi:10.1101/2022.12.26.521971.
Where “and” joins values, the source holds several entries; their conditions need not be identical. Equal entries are not always repeated.

Key:
[1] = molecular target: wild-type human Neurotensin Receptor 1 (hNTSR1) (human) (UniProt P30989); experiment: radioligand binding
[2] = molecular target: wild-type rat Neurotensin Receptor 1 (rNTSR1) (rat) (UniProt P20789); experiment: radioligand binding
Sequence of wild-type rat Neurotensin Receptor 1 (rNTSR1) (rat) (P20789 whole entry): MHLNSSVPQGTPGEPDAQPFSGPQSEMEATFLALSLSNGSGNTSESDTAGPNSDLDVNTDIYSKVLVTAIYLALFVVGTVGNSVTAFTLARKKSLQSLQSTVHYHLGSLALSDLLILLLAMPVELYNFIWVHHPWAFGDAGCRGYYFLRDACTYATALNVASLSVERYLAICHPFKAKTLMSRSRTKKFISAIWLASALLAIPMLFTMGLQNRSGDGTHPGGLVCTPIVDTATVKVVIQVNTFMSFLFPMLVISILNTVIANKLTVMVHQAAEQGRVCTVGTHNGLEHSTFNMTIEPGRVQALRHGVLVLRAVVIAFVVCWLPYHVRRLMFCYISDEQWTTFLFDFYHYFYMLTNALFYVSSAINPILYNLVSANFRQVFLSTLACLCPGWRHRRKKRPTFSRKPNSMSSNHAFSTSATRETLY

Sequence of wild-type human Neurotensin Receptor 1 (hNTSR1) (human) (P30989 whole entry): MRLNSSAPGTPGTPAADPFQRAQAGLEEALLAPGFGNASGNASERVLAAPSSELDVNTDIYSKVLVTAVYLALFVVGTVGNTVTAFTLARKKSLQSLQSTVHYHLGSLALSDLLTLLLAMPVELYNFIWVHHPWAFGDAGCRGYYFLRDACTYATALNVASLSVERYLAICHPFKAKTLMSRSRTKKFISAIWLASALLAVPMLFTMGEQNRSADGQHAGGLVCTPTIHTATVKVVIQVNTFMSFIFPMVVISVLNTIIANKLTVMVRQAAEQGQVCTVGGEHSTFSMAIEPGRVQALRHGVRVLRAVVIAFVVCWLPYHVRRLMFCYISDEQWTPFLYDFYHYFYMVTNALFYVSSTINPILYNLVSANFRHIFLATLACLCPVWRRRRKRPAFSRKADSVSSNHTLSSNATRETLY

Kd [1]: 2.14 nM and 0.92 nM | Kd [2]: 2.3 nM and 0.67 nM
Substance: [3H]Neurotensin (peptide)
